This is an account of results in the DeepSol protein solubility set.

The series can be described thus: soluble on expression in E. coli; label from the status in PepcDB or PDB records.
As for “MTGITVSDSAARRIAKILDSEPGKTALRVSVEGGGCSGFSYKYDLVDAQTEDDIVIEKLGARVLIDSISVPYMDGSEIDFVDDLMGQSFQIRNPNATASCGCGTSFAILEHHHHHH”, the “soluble on expression in E. coli” value was “soluble”. In the case of “MTGNVLNYYAGGNTARGFHNLYEENLKGLDRLFILKGGPGTGKSSLIKAIGREWIEKGYDIEFLHCSSDNKSVDGVIIPKLKVGIVDGTSPHVIEPKMPGVVEEYINLGIAWDSDKLRKQKLEIERFVSEASKAFQSAYARFKEALVIHDEWEKIYIDNIDFNKANELTNQLIQKLFADKSGRQSLVKHRFLGAATPKGAVDFVPNLTEGLPHRYFIKGRPGSGKSTMLKKLAKAAEEKGFEVEVYHCGFDPNSLDMVIVRELGFAIFDSTAPHEYFPSREGDEIIDMYALIVTPGTDEKYAKEIRDVSIQYKAKMNEAMSFLAKAKSIRDKLERIYIAAMDFSIVDAYKEEIQKEFERIAATVIEKQQ” it was “not soluble”; in that of “MTGRIVHFEIPFDDGDRARAFYRDAFGWAIAEIPDMDYSMVTTGPVGESGMPDEPGYINGGMMQRGEVTTPVVTVDVESIESALERIESLGGKTVTGRTPVGNMGFAAYFTDSEGNVVGLWETAR”, “soluble”; in that of “MTGTGILARPERNHYFSLALAFCSWVRNGYGVFRYSDKELLFLASINGQPAVMADLSGNDADVAQKVSLFLTMNEEPPEKWQVVSPLEHPDNWESIITRLSSADLRRCKLTVGNRSKFTLPAVLFLVAASAGTVFWMTQPEPDVVPTPEEIAARARLQFKKPDPPPELPHPWASQPVISDFLKACADLRKPSPVALEGWKLTGGTCTPETFTLIYERQPGGTIEGFLARSKEIFNVIPDFNLKDGARLASVTRPLPSLPRRDEAVPTPSEQLMRVFTWFQKKQLTPAINEIAIPEPLPGNDGEPAPVQKWKEYQFSLSTPVNPDELFPLFQDTGVRLSNIHFELNGGTFSYSSEGHIYASRLEHHHHHH”, “not soluble”.

In the case of “MTHVCSVILIRRSFDIYHEQQKISLHNESILLLEKNLADDFAFCSPDTRRLDIDELTVCHYLQNIRQLPRNLGLHSKDRLLINQSPPMPLVTAIFDSFNESGVNSPILSNMLYLSCLSMFSHKKELIPLLFNSISTVSGKVERLISFDIAKRWYLRDIAERMYTSESLIKKKLQDENTCFSKILLASRMSMARRLLELRQIPLHTIAEKCGYSSTSYFINTFRQYYGVTPHQFAQHSPGTFS”, the “soluble on expression in E. coli” value is “not soluble”. In the case of “MTIALELQQLKKTYPGGVQALRGIDLQVEAGDFYALLGPNGAGKSTTIGIISSLVNKTSGRVSVFGYDLEKDVVNAKRQLGLVPQEFNFNPFETVQQIVVNQAGYYGVERKEAYIRSEKYLKQLDLWGKRNERARMLSGGMKRRLMIARALMHEPKLLILDEPTAGVDIELRRSMWGFLKDLNDKGTTIILTTHYLEEAEMLCRNIGIIQHGELVENTSMKALLAKLKSETFILDLAPKSPLPKLDGYQYRLVDTATLEVEVLREQGINSVFTQLSEQGIQVLSMRNKANRLEELFVSLVNEKQGDRA” it was “not soluble”. In the case of “MTIATIDIGGTGIKFASLTPDGKILDKTSISTPENLEDLLAWLDQRLSEQDYSGIAMSVPGAVNQETGVIDGFSAVPYIHGFSWYEALSSYQLPVHLENDANCVGLSELLAHPELENAACVVIGTGIGGAMIINGRLHRGRHGLGGEFGYMTTLAPAEKLNNWSQLASTGNMVRYVIEKSGHTDWDGRKIYQEAAAGNILCQEAIERMNRNLAQGLLNIQYLIDPGVISLGGSISQNPDFIQGVKKAVEDFVDAYEEYTVAPVIQACTYHADANLYGALVNWLQEEKQW” it was “soluble”; in that of “MTIDVWMQHPTQRFLHGDMFASLRRWTGGSIPETDIPIEATVSSMDAGGVTLGLLSAWRGPNGQDLISNDAVAEWVRLYPNRFAGLAAVDLDRPMAAVRELRRRVGEGFVGLRVVPWLWGAPPTDRRYYPLFAECVQSAVPFCTQVGHTGPLRPSETGRPIPYIDQVALDFPELVIVCGHVGYPWTEEMVAVARKHENVYIDTSAYTIKRLPGKLVRFMKTDTGQRKVLFGTNYPMIAHTHALTGLDELGLSDEARRDFLHGNAVRVFKLDPRGKVQT”, “not soluble”; in that of “MTIEHGIWPGKIDIYEKNFNTGQKCMRNPFQNPFPESDTARHSIWEMLVSRDIDAFLAADWSMVADDFVEESFIGVDGRRETNPDKWRLTFPSLAVYRDEWLRQARDFAGQSFAEDPREAIFTTTTLEDIEVDGELALARKKFDGGLKKADGTFDVMKWQTVYYCRLHRGRWKICGFTGYLPNPMGSN”, “soluble”. In the case of “MTIFQFPQDFMWGTATAAYQIEGAYQEDGRGLSIWDTFAHTPGKVFNGDNGNVACDSYHRYEEDIRLMKELGIRTYRFSVSWPRIFPNGDGEVNQEGLDYYHRVVDLLNDNGIEPFCTLYHWDLPQALQDAGGWGNRRTIQAFVQFAETMFREFHGKIQHWLTFNEPWCIAFLSNMLGVHAPGLTNLQTAIDVGHHLLVAHGLSVRRFRELGTSGQIGIAPNVSWAVPYSTSEEDKAACARTISLHSDWFLQPIYQGSYPQFLVDWFAEQGATVPIQDGDMDIIGEPIDMIGINYYSMSVNRFNPEAGFLQSEEINMGLPVTDIGWPVESRGLYEVLHYLQKYGNIDIYITENGACINDEVVNGKVQDDRRISYMQQHLVQVHRTIHDGLHVKGYMAWSLLDNFEWAEGYNMRFGMIHVDFRTQVRTPKESYYWYRNVVSNNWLETRR” it was “soluble”; in that of “MTIKRVGILGAGKVGIVLAGLALKAGYEVRISGSGSVDKIDLTISTLVPGAIASENAEVVANSDIIILAIPLSRYKNIDPTLLKGKLVIDAMNYWWETDGIREEVLDPTLTSSEQVQNYFKDSTIVKTFNHMGYHNLQEEALPKLEHHHHHH”, “soluble”; in that of “MTIRLNDLGQVYLVCGKTDMRQGIDSLAYLVKSQHELDLFSGAVYLFCGGRRDRFKALYWDGQGFWLLYKRFENGKLAWPRNRDEVKCLTAVQVDWLMKGFFISPNIKISKSHDFY”, “not soluble”. Turning to “MTITPATHAISINPATGEQLSVLPWAGADDIENALQLAAAGFRDWRETNIDYRAEKLRDIGKALRARSEEMAQMITREMGKPINQARAEVAKSANLCDWYAEHGPAMLKAEPTLVENQQAVIEYRPLGTILAIMPWNFPLWQVMRGAVPIILAGNGYLLKHAPNVMGCAQLIAQVFKDAGIPQGVYGWLNADNDGVSQMIKDSRIAAVTVTGSVRAGAAIGAQAGAALKKCVLELGGSDPFIVLNDADLELAVKAAVAGRYQNTGQVCAAAKRFIIEEGIASAFTERFVAAAAALKMGDPRDEENALGPMARFDLRDELHHQVEKTLAQGARLLLGGEKMAGAGNYYPPTVLANVTPEMTAFREEMFGPVAAITIAKDAEHALELANDSEFGLSATIFTTDETQARQMAARLECGGVFINGYCASDARVAFGGVKKSGFGRELSHFGLHEFCNIQTVWKDRI”, the “soluble on expression in E. coli” value is given as “soluble”. In the case of “MTKAADDNIIVGLDIGTATVSALVGEILPDGQINIIGAGSSPSRGMDKGGVNDLESVVKSVQRAIDQAELMAECQISRVFISLSGKHIASRIEKGMGTISDEEVSQEDMDRAIHTAKSIKIGDEQ” it was “not soluble”; in that of “MTKHVAVLLAHGFEEAEAVIFIDIMRRLDIRVDILSCEATTALSTYFETPISADALLSDRLDHHYDAVMMPGGPKGTDSLTANPQVIAFLRRHIAQDKYICALCSSGAKVLAAHHLLAGRTYSTGDKLADKFADGAYLDQDVVVDGKFITAKGLGVSFEFAFTVARHLLSDNLPKVEHQASHIYFKHGSAQT”, “not soluble”; in that of “MTKIAFVFPGQGAQKVGMGQDVAAEYPEAKKIYDDADERLGFSITEIITEGPIELLTKSENAQPALVSTSVAILRALETYGVKADYVAGHSLGEYSALVAGGFLEASDAIYLVRKRGELMEAAVPNGAGAMAAVLGVDRETLKTITEEVTKEGDAVQLANLNCPGQIVISGTTAGVEKAGEKAKESGAKRVLPLAVSGPFHSSLMEPAALAFRDVLAEVKISDGQIPVVNNVDAKETTDKSEISDKLIKQIYSPVLWEDIVEELIKNGVDTFVEIGSGKVLAGLIKKINRDVTVLSAGDAESVKSVAATLKGE”, “not soluble”.

Regarding “MTKKYLTFDCYGTLINTEPLYQWVANLGLAVGLDPLTVRKAYATYEDDPASVNPYLDYSTLVRADLKHLDRLFEQRHFFESHYVECLEVQRHLLPYADVIPTLTAWQQLGYQLIIMSNSSWDIMPANIAALKVSFTAVVTAEDIQAYKPALAFFETVQERFKLTADNHWHIARGYESDVVPASAMQWPMIWINRDQRQPTSSERPTHMVTDLAAVKQWVN”, the “soluble on expression in E. coli” value is reported as “not soluble”. In the case of “MTKLPQTQGVLNFIQKYLYNSTNYNFEDGSTQAINVPYPDSGVYENYILHYPDATSTELLDINIDQLYSEVMVLTDPKIERAYEYILEERDPGTSSTNILVTVGVE” it was “not soluble”; in that of “MTKNTSYHYSIIIPHKNTPRLLERCLCSIPTWDEIQIIIIDDNSNSESVDFSHFPGNGRKNTEVLFTKEGKGAGYARNIGLSHARGKWIIFADADDFFTADCFTILNEYMDSPHEVIYFNVRFVMSDNPSQESRRGTYYTNFFNDVNPENKLRYQSQVPWGKMIRRSFLSTFHIQFDETRIANDVYFSCLVGIYAPKATTDRRIIYYCTESGQSLAMSKQDRESLIIRFNASMKCNRLLRQEKIHYYLSPLPWCIPSAKTKEWLPAKYFFEYLFFFRLQAFKELYYAFSAILSHMNEPATKETDNQCNKKTTNLRE”, “not soluble”. Regarding “MTKQLPNLQVALDHSNLKGAITAAVSVGNEVDVIEAGTVCLLQVGSELVEVLRSLFPDKIIVADTKCADAGGTVAKNNAVRGADWMTCICSATIPTMKAARKAIEDINPDKGEIQVELYGDWTYDQAQQWLDAGISQAIYHQSRDALLAGETWGEKDLNKVKKLIEMGFRVSVTGGLSVDTLKLFEGVDVFTFIAGRGITEAKNPAGAARAFKDEIKRIWG”, the “soluble on expression in E. coli” value is on record as “soluble”. In the case of “MTKQQIEKLADLLPPFAATLYLDMIPEFQEGYASYVYQTPKQDIQKRRIKQLTKNFERLLDTPSFYVMPVTRKTAEQLLADKGLAYHLLSTVAANQVFAAAVNEDQMLFQVLRNGARVAFVILQEKGEFLEMTLGILETVTENEVPAAIVEAVQTYLLADMQEKLPSLSIMVSQESSKLFYQEQGFVLLAKGCKPGNENDSDVCQLVKYFSKP” it was “not soluble”; in that of “MTKRSDSVAPKERINIKYVPATGDEQAEVELPHKMMVLGDFGLDDSRSLEDRQVMRIDKHTFNNVLNDADVSLAMSVPSALDATPNAELAVNLQFKSIQDFGPDRIARQVPELNKLLQLREALVALKGPLGNVPTFRKQLQQLLNDAHARKQLAQELDLVLEAPKAD”, “not soluble”. In the case of “MTLHELLEKPVWKMTGEELLFLAQQGSTQQEGDTQDKAPAKEERHFVYGLSGLARLFGCSLPTANRIKQSGKIDRAITQIGRKIIIDADLALELAGRKVGGRR” it was “not soluble”.
